The results in this text go back to PMC2877774, “Structural and Biochemical Bases for the Redox Sensitivity of Mycobacterium tuberculosis RslA” (Journal of Molecular Biology, 2010).

B1: σ2^L domain of Mycobacterium tuberculosis σ^L (domain or fragment)
chain: MARVSGAAAAEAALMRALYDEHAAVLWRYALRLTGDAAQAEDVVQETLLRAWQHPEVIGDTARPARAWLFTVARNMIIDERRSARFRNVV
B2: Anti-σ domain (ASD) of Mycobacterium tuberculosis RslA (residues 1–108), Zn2+-bound (domain or fragment)
chain: MTMPLRGLGPPDDTGVREVSTGDDHHYAMWDAAYVLGALSAADRREFEAHLAGCPECRGAVTELCGVPALLSQLDRDEVAAISESAPTVVASGLSPELLPSLLAAVHR
notes: Anti-sigma-L factor RslA, Mycobacterium tuberculosis, cytosolic anti-sigma domain, residues 1-108; also called holo-RslA; Mtb RslA
B3: Apo-RslA: anti-σ domain of Mycobacterium tuberculosis RslA (residues 1–108), Zn2+-free, oxidized (domain or fragment)
chain: B2 chain
modifications: disulfide bond between Cys54 and Cys57 in oxidized apo-RslA; Zn2+ removed
notes: For SPR the Zn2+ was removed on the chip with 10 mM H2O2 and 2 mM TPEN; in solution with 1 mM H2O2 and 5 mM TPEN; also called Zn^2+-free RslA; oxidized RslA

The target of data set [1] is B2. The data set can be described thus: SPR; BIACORE 2000; RslA immobilised on a CM5 chip at 12 ng/mm2; σ^L, σ2^L, σ4^L as analytes; 20 mM Tris-HCl pH 7.8, 200 mM NaCl, 50 mM imidazole, 1 mM DTT (holo-RslA). As to conditions: both partners purified.
Data set [2] deals with the molecule itself. The data set can be described thus: SEC + other: dynamic light scattering.

Where “and” joins values, the source holds several entries; their conditions need not be identical. Identical values can stand only once.

For orientation: Kd means the concentration at which binding is half-saturated. High values mean weaker binding, low ones tighter binding. As to B1, the Kd in data set [1] is about 2000 nM.

As a reminder, the stoichiometry N is a count of units in the complex or per binding partner. As to B2, the “stoichiometry N” value in data set [2] is 2 and 4.

For the molecule B3, the “stoichiometry N” value in data set [2] is 2 and 4.
